The EC50 is the concentration at which the effect is half-maximal.

The values that follow come from US20210032351A1 (XDCEXPLORER SHANGHAI, published 2021).

Ends that are not written are not given here. * marks the point of attachment. Biotin = O=C1N[C@H]2[C@H](CS[C@H]2CCCCC(=O)*)N1

The target in assay [1] is T1, human EGFRvIII-hFc protein (human, UniProt P00533 25-645).
T1 construct: extracellular domain; made in HEK293 cells, purified on protein A; also called immunogen A; hFc-tagged EGFRvIII protein; not shown: human IgG Fc fragment (hFc) of the pCpC vector
Briefly: ELISA, coated EGFRvIII-hFc, antibody 0.001 nM. Summed up: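 The antibody is applied to BSA-blocked wells pre-coated with EGFRvIII-hFc (1.0 μg/mL, overnight, 4° C) for 2 h at 37° C. Detection uses an HRP secondary (2 h, 37° C), TMB for 30 min, HCl stop and absorbance at 450 nm.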
(An ELISA detects its analyte on a solid surface through an enzyme-linked reagent.)

The next assay has as its target T2, pep20 (cysteine pairing not given here).
T2 peptide: CGADSYEMEEDGVRKCK(Biotin)
Put plainly: polypeptide dot matrix ELISA.

A further assay has as its target T3, pep15 (cysteine pairing not given here).
T3 peptide: SCVRACGADSYEMEEDK(Biotin)
Briefly: polypeptide dot matrix ELISA.

Another assay concerns the target T4, pep07 (cysteine pairing not given here).
T4 peptide: NYVVTDHGSCVRACGAK(Biotin)
Briefly: polypeptide dot matrix ELISA.

Another assay deals with T5, pep24 (cysteine pairing not given here).
T5 peptide: SYEMEEDGVRKCKKCEK(Biotin)
Briefly: polypeptide dot matrix ELISA.

The target in the next assay is T6, pep31 (cysteine pairing not given here).
T6 peptide: GVRKCKKCEGPCRKVCK(Biotin)
Put plainly: polypeptide dot matrix ELISA.

Another assay has as its target T7, pep14 (cysteine pairing not given here).
T7 peptide: GSCVRACGADSYEMEEK(Biotin)
Put plainly: polypeptide dot matrix ELISA.

A further assay concerns the target T8, pep17.
T8 peptide: VRACGADSYEMEEDGVK(Biotin)
Briefly: polypeptide dot matrix ELISA.

The target of the next assay is T9, pep11 (cysteine pairing not given here).
T9 peptide: TDHGSCVRACGADSYEK(Biotin)
Put plainly: polypeptide dot matrix ELISA.

The target in another assay is T10, pep12 (cysteine pairing not given here).
T10 peptide: DHGSCVRACGADSYEMK(Biotin)
Briefly: polypeptide dot matrix ELISA.

Another assay deals with T11, pep30 (cysteine pairing not given here).
T11 peptide: DGVRKCKKCEGPCRKVK(Biotin)
Briefly: polypeptide dot matrix ELISA.

The target of the next assay is T12, pep18.
T12 peptide: RACGADSYEMEEDGVRK(Biotin)
Put plainly: polypeptide dot matrix ELISA.

A further assay addresses T13, pep09 (cysteine pairing not given here).
T13 peptide: VVTDHGSCVRACGADSK(Biotin)
Put plainly: polypeptide dot matrix ELISA.

The target in the next assay is T14, pep13 (cysteine pairing not given here).
T14 peptide: HGSCVRACGADSYEMEK(Biotin)
Put plainly: polypeptide dot matrix ELISA.

Another assay has as its target T15, pep10 (cysteine pairing not given here).
T15 peptide: VTDHGSCVRACGADSYK(Biotin)
Briefly: polypeptide dot matrix ELISA.

For a further assay, the target named is T16, pep27 (cysteine pairing not given here).
T16 peptide: MEEDGVRKCKKCEGPCK(Biotin)
Briefly: polypeptide dot matrix ELISA.

The target of the next assay is T17, pep03.
T17 peptide: EKKGNYVVTDHGSCVRK(Biotin)
Briefly: polypeptide dot matrix ELISA.

A further assay deals with T18, pep25 (cysteine pairing not given here).
T18 peptide: YEMEEDGVRKCKKCEGK(Biotin)
Briefly: polypeptide dot matrix ELISA.

For another assay, the target named is T19, pep32 (cysteine pairing not given here).
T19 peptide: VRKCKKCEGPCRKVCNK(Biotin)
Put plainly: polypeptide dot matrix ELISA.

In another assay the target is T20, pep08 (cysteine pairing not given here).
T20 peptide: YVVTDHGSCVRACGADK(Biotin)
Briefly: polypeptide dot matrix ELISA.

The next assay deals with T21, pep02.
T21 peptide: EEKKGNYVVTDHGSCVK(Biotin)
Put plainly: polypeptide dot matrix ELISA.

Assay [2] concerns the target T22, human EGFRvIII protein on the cell surface (human, UniProt P00533 25-1210).
T22 construct: whole, on cells; the cell line is named under assay; also called hEGFRvIII; U87MG-hEGFRvIII
Put plainly: FACS on U87MG-EGFRvIII cells. Summed up: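 U87MG-EGFRvIII, A431 and primary human hepatocytes (2×10⁶ cells/mL, goat-serum blocked) were incubated with antibody on ice for 2 h, then with an Alexa 488 secondary (1:1000) for 1 h and fixed in 4% paraformaldehyde. Mean fluorescence intensity was read by flow cytometry, and EC50 was derived by curve fitting.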

B1: Murine anti-75G7 (antibody, V domains shown)
VH: EVQLQQSGPELVKPGASVKIPCKASGYTFTDYNMDWVKQSHGKSLEWIGDINPNNGDTIYNQKFKGKATLTVDKSSSTAYMELRSLTSEDTAVYYCARGDYDGYYPVYYAMDYWGQGTSVTVSS
VL: ENVLTQSPAIMSASPGEKVTMTCRASSSVSSSYLHWYQQKSGASPKLWIFSTSNLAAGVPARFSGSGSGTSYSLTVSSVEAEDAATYYCQQYSGYPLTFGAGTKLELK
notes: murine hybridoma antibody; also called 75G7C6
B1 yielded an OD450 nm in assay [1] of 0.07. Also, the binding result with pep20, with pep15, with pep07, in the assay with pep24, in the assay with pep31 and in the assay with pep14 was “no binding” throughout. For the same molecule, the binding result with pep17, with pep11, in the assay with pep12, in the assay with pep30, with pep18 and in the assay with pep09 was “no binding” in each case. Further, the binding result in the assay with pep13, with pep10, with pep27, with pep03, in the assay with pep25 and in the assay with pep32 was “no binding” each time. Moreover, the binding result with pep08 and with pep02 was “no binding” each time.

B2: Chimeric antibody 75G7 (antibody, human IgG1, V domains shown)
VH: B1 VH
VL: B1 VL
notes: also called c75G7C6; chimeric antibody c75G7C6
In the case of B2, in assay [2], the EC50 was found to be 5.75 nM and the “Maximum mean fluorescence intensity” value was found to be 18100 MFI.
